The target in test [1] is T1, human IL-12 (human, UniProt P29460 23-328; P29459 23-219).
T1 construct: Recombinant (Peprotech); FLAG-tagged IL-12 in the flow cytometry assays, biotinylated in the IL-12Rβ2 assay; also called hIL-12
T1 sequence 1: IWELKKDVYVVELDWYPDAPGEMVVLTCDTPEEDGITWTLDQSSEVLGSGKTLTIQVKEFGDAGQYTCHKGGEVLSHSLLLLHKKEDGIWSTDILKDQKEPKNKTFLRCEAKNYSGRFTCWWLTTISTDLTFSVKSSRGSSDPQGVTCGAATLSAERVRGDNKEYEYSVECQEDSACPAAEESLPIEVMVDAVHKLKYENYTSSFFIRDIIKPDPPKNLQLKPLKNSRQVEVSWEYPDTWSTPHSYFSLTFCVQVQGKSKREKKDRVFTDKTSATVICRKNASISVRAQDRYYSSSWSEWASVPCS
T1 sequence 2: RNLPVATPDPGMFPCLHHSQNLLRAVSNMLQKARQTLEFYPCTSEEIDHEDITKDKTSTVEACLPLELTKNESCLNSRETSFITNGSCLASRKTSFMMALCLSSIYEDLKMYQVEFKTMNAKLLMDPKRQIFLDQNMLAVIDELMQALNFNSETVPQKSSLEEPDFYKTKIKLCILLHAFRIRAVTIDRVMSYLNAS
Nature of the test: ELISA, coated IL-12. The gist of the method:
(§1)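 Maxisorp plates were coated overnight at 4° C with cytokine at 1 μg/mL in carbonate buffer pH 9.6, then blocked for 1 hour at 25° C with 1% BSA in PBS. Antibody titrations were allowed to bind for 1 hour at 25° C and detected with goat anti-human IgG or anti-murine immunoglobulin HRP (1:2000, 1 hour), followed by TMB development stopped with 1M HCl. Binding is reported as absorbance. Readings were taken at 450 nm against a 620 nm reference.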
In general terms: An ELISA detects its analyte on a solid surface through an enzyme-linked reagent.

Test [2] concerns the target T2, human IL-23 (human, UniProt P29460 23-328; Q9NPF7 20-189).
T2 construct: Recombinant (Ebioscience); HIS-tagged in flow cytometry, biotinylated in some assays; also called hIL-23; rhIL-23
T2 sequence 1: T1 sequence 1
T2 sequence 2: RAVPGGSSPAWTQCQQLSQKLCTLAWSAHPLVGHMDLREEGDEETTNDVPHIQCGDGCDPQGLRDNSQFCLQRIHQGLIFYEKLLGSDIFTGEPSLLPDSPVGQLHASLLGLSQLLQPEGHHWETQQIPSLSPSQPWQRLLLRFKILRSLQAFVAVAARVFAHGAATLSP
Nature of the test: ELISA, coated IL-23. The gist of the method:
as §1

Test [3] addresses T1, human IL-12. The test is described as follows: SPR, IgG on Protein A. As for the experimental part:
(§2) Using a SPR 3000, Protein A was immobilized onto FC1 and FC2 (or alternatively FC3 and FC4) of a CM5 research grade sensor chip using amine coupling, giving approximately […] RU. FC1 was used a blank throughout the experiments. The experiments were run in HBS-P buffer (SPR). At a flow rate of 20 μl/min, 20 μl of 5 μg/mL of antibody was passed over FC2. IL-12, IL-23 or IL-12p40 (Peprotech) were passed over the surface of FC1 and FC2 at concentrations ranging from 66 nM to 2 nM. Regeneration of the surface was performed using 10 mM Glycine, pH 1.0. The sensorgram data from FC2 was subtracted from FC1 and a buffer only control. The curves were fitted using a 1:1 Langmuir equation to generate the kd, ka and KD values. All curves were fitted with a χ² of less then 2.0 where possible.
(In general: In SPR one partner is held on a chip, and binding of the other changes the refractive index at the surface.)

The target of test [4] is T2, human IL-23. Nature of the test: SPR, IgG on Protein A. As for the experimental part: as §2
Test [5] concerns the target T2, human IL-23. Nature of the test: SPR, single 81 nM analyte, scFv via FLAG.
Test [6] concerns the target T2, human IL-23. The test is described as follows: SPR, single 81 nM analyte, scFv via FLAG; LOD about 1 × 10^-5 s^-1.

This is an account of results in patent publication US20110262445A1 (CEPHALON AUSTRALIA, published 2011).

Substitutions are numbered along the chain they refer to. Names and notes keep the numbering of the source.

B1: Antibody 51 (antibody, human IgG1, kappa, V domains shown)
VH: EVQLVQSGAEVKKPGATVKISCKASGYTFSDYYLHWVRQAPGKGLEWMGWIDPENGDTEYAPKFQGRVTITADTSTDTGYLELSSLRSEDTAVYYCAANKELRYFDVWGQGTLVTVSS
VL: DIQMTQSPSSVSASVGDRVTITCRASQSISINLHWYQQKPGKAPKLLIYFASQSISGVPSRFSGSGSGTDFSLTINSLQPEDFATYYCQQSNSFPLTFGGGTKVEIKR
As to B1, the binding result in the test with human IL-12 [1] and in the test with human IL-23 [2] was “binds” throughout.

B2: Antibody 56 (antibody, human IgG1, kappa, V domains shown)
VH: B1 VH
VL: B1 VL with Y49K
On to B2, for which the binding result with human IL-12 [1] and with human IL-23 [2] was “binds” in each case.

B3: Antibody 52 (antibody, human IgG1, kappa, V domains shown)
VH: B1 VH with A40R
VL: B1 VL
B3: the binding result with human IL-12 [1] and with human IL-23 [2] was “binds” each time.

B4: Antibody 54 (antibody, human IgG1, kappa, V domains shown)
VH: B1 VH with R67K
VL: B1 VL
As for B4, the binding result with human IL-12 [1] and with human IL-23 [2] was “binds” each time.

B5: Antibody 59 (antibody, human IgG1, kappa, V domains shown)
VH: B1 VH with R67K
VL: B1 VL with Y49K
Consider B5, for which the binding result with human IL-12 [1] and in the test with human IL-23 [2] was “binds” each time.

B6: Antibody 55 (antibody, human IgG1, kappa, V domains shown)
VH: B1 VH with A40R, G42E, R67K
VL: B1 VL
With B6, the binding result in the test with human IL-12 [1] and with human IL-23 [2] was “binds” throughout.

B7: Antibody 57 (antibody, human IgG1, kappa, V domains shown)
VH: B1 VH with A40R
VL: B1 VL with Y49K
On to B7, for which the binding result with human IL-12 [1] and with human IL-23 [2] was “binds” each time.

B8: Antibody 58 (antibody, human IgG1, kappa, V domains shown)
VH: B1 VH with G42E
VL: B1 VL with Y49K
For the molecule B8, the binding result in the test with human IL-12 [1] and with human IL-23 [2] was “binds” in each case.

B9: Antibody 3 (antibody, human IgG1, kappa, V domains shown)
VH: EVQLQQSGADLVRSGASIKLSCTASGFNIKDYYMHWVKQRPEQGLEWIGWIDPENGDTEYAPKFQGKATMTADTSSNTAYLQLSSLTSEDTAVYYCNACKELRYFDVWGAGTTVTVSS
VL: DIVLTQSPATLSVTPGDSVSLSCRASQSISINLHWYQQKSHESPRLLIKFASQSISGIPSRFSGYGSGTDFTLSINSVETEDFGRYFCQQSNSFPLTFGAGTKLELKR
notes: Antibody 1 with light chain W94F
For orientation: Kd means the equilibrium constant for the complex coming apart. In general, koff refers to a measure of how fast the partners let go of each other. The kon is a measure of how fast the partners come together. The low end stands for slow association, the high end for fast association. For the molecule B9, in the test with human IL-12 [3], the affinity, expressed as Kd, was 43.8 pM; the dissociation rate constant (koff) was determined as 9.39e-05 s⁻¹; the association rate constant (kon) came out at 2.15e+06 M⁻¹ s⁻¹. Moreover, in the test with human IL-23 [4], the Kd amounted to 89.6 pM, the koff came to 0.000111 s⁻¹ and the association rate constant (kon) worked out at 1.24e+06 M⁻¹ s⁻¹.

B10: Antibody 7 (antibody, human IgG1, kappa, V domains shown)
VH: B9 VH with C99N
VL: B9 VL with F94W
notes: Antibody 1 with heavy chain C95N
In the test with human IL-12 [3], B10 yielded a Kd of 91.8 pM, a koff of 0.000167 s⁻¹ and an on-rate (kon) of 1.82e+06 M⁻¹ s⁻¹. Moreover, in the test with human IL-23 [4], the dissociation constant (Kd) is 72.2 pM, the koff came to 0.000147 s⁻¹ and the on-rate (kon) was determined as 2.03e+06 M⁻¹ s⁻¹.

B11: Antibody 4 (antibody, human IgG1, kappa, V domains shown)
VH: B9 VH with M34L
VL: B9 VL with F94W
notes: Antibody 1 with heavy chain M34L
In the test with human IL-12 [3], B11 yielded a Kd of 133 pM, a koff of 0.000204 s⁻¹ and an association rate constant (kon) of 1.54e+06 M⁻¹ s⁻¹. In the test with human IL-23 [4], this molecule registered a dissociation constant Kd of 127 pM, an off-rate (koff) of 0.000158 s⁻¹ and a kon of 1.25e+06 M⁻¹ s⁻¹.

B12: scFv combo. # 1 (scFv)
scFv: QVQLVQSGAEVKKPGASVKVSCKASGYTFTDYYLHWVRQAPGRGLEWMGWIDPENGDTEHAPKFQGRVTMTTDTSTSTAYMELRSLRSDDTAVYYCNANKELRYFDVWGQGTMVTVSSGGGGSGGGGSGGGGSEIVMTQSPATLSVSPGERATLSCRASQSISINLHWYQQKPGQAPRLLIYFASQSTSGIPARFSGSGSGTEFTLTISSLQSEDFAVYYCQQSNSFPLTFGGGTKVEIKR
notes: scFv-80 with VH Q43R, Y59H; VL I55T; not shown: proprietary C-terminal FLAG tag
In the test with human IL-23 [5], B12 yielded a Kd of at most 32 pM and a kon of 230000 M⁻¹ s⁻¹. Moreover, the dissociation rate constant (koff) with human IL-23 [6] is under 1e-05 s⁻¹.

B13: scFv combo. # 8 (scFv)
scFv: B12 scFv with F29L, R43Q, H60S, T188I
notes: scFv-80 with VH F29L, Y59S; not shown: proprietary C-terminal FLAG tag
Take B13: in the test with human IL-23 [5], the Kd is at most 7.5 pM and the kon is 200000 M⁻¹ s⁻¹. Besides, the koff in the test with human IL-23 [6] is under 1e-05 s⁻¹.

B14: scFv combo. # 11 (scFv)
scFv: B12 scFv with R43Q, H60S, S159P, T188I
notes: scFv-80 with VH Y59S; VL S26P; not shown: proprietary C-terminal FLAG tag
In the test with human IL-23 [5], B14 gave a dissociation constant Kd of at most 27 pM and a kon of 220000 M⁻¹ s⁻¹. Moreover, the koff with human IL-23 [6] is under 1e-05 s⁻¹.

B15: scFv combo. # 9 (scFv)
scFv: B12 scFv with H60S
notes: scFv-80 with VH Q43R, Y59S; VL I55T; not shown: proprietary C-terminal FLAG tag
As for B15, in the test with human IL-23 [5], the dissociation constant Kd was at most 27 pM and the kon amounted to 220000 M⁻¹ s⁻¹. For the same molecule, the koff with human IL-23 [6] was under 1e-05 s⁻¹.

B16: scFv combo. # 10 (scFv)
scFv: B12 scFv with T28A, R43Q, T188I
notes: scFv-80 with VH T28A, Y59H; not shown: proprietary C-terminal FLAG tag
Consider B16, for which, in the test with human IL-23 [5], the equilibrium dissociation constant (Kd) is at most 13 pM and the on-rate constant (kon) amounted to 220000 M⁻¹ s⁻¹. In addition, the koff with human IL-23 [6] was under 1e-05 s⁻¹.

B17: scFv combo. # 2 (scFv)
scFv: B12 scFv with T28A, R43Q, H60S, T188I
notes: scFv-80 with VH T28A, Y59S; not shown: proprietary C-terminal FLAG tag
With B17, in the test with human IL-23 [5], the Kd was at most 34 pM and the on-rate (kon) is 230000 M⁻¹ s⁻¹. The molecule also returned a dissociation rate constant (koff) with human IL-23 [6] of under 1e-05 s⁻¹.

B18: scFv combo. # 7 (scFv)
scFv: B12 scFv with F29L, R43Q, T188I
notes: scFv-80 with VH F29L, Y59H; not shown: proprietary C-terminal FLAG tag
In the test with human IL-23 [5], B18 returned an equilibrium dissociation constant (Kd) of at most 3.3 pM and a kon of 200000 M⁻¹ s⁻¹. In addition, the off-rate constant (koff) in the test with human IL-23 [6] was under 1e-05 s⁻¹.

B19: scFv combo. # 12 (scFv)
scFv: B12 scFv with T28A, R43Q, H60S, T69S, T188I
notes: scFv-80 with VH T28A, Y59S, T68S; not shown: proprietary C-terminal FLAG tag
For B19, in the test with human IL-23 [5], the Kd is at most 16 pM and the association rate constant (kon) was 220000 M⁻¹ s⁻¹. In addition, the koff in the test with human IL-23 [6] was under 1e-05 s⁻¹.

B20: scFv combo. # 6 (scFv)
scFv: B12 scFv with T28A, R43Q, T69S, T188I
notes: scFv-80 with VH T28A, Y59H, T68S; not shown: proprietary C-terminal FLAG tag
On to B20, for which, in the test with human IL-23 [5], the equilibrium dissociation constant (Kd) is at most 41 pM and the kon is 230000 M⁻¹ s⁻¹. The molecule further came in with an off-rate constant (koff) in the test with human IL-23 [6] of under 1e-05 s⁻¹.
